The values that follow come from paper PMC5722929.

In this assay the target is AMPA glutamate receptor subunit GluA1 (mouse (endogenous in primary hippocampal neurons)) (UniProt P23818). The experiment in a line: co-IP; endogenous proteins in lysates of hippocampal neurons treated with vehicle (CTR) or IPA (insulin 20 nM + palmitic acid 0.2 mM); IP buffer KCl 50 mM, Tris-HCl 50 mM pH 8, EDTA 10 mM, 1% Nonidet P-40; specific antibody or IgG (negative control) with protein G-sepharose 4B, 6 h at 4 °C; six washes; immunoblot. (Immunoblotting shows a protein as a band on a membrane.)
Sequence of UniProt P23818 (P23818 19-907): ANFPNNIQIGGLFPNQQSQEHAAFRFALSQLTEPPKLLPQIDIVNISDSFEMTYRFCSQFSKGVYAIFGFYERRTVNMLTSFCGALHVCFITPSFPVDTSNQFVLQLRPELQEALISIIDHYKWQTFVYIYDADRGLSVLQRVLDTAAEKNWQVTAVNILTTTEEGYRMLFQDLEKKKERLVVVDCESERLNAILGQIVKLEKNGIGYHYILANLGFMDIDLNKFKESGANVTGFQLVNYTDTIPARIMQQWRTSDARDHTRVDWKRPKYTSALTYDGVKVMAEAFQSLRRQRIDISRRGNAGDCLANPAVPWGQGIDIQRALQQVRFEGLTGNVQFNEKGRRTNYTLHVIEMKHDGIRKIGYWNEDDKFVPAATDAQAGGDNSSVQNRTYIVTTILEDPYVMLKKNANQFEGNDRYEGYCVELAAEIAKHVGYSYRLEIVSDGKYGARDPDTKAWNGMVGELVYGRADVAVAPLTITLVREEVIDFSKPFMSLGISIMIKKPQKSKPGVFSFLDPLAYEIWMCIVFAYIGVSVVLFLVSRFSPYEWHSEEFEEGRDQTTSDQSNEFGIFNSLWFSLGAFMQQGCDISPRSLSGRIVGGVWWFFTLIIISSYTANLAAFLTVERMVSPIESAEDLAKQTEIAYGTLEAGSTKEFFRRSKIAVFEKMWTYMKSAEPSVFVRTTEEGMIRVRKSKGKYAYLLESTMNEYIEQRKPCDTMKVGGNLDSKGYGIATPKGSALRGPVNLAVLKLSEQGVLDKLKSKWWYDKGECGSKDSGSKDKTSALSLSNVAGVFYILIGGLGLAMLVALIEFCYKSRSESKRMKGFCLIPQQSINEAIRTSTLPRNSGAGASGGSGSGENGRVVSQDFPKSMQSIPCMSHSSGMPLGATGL

In the case of “actin (from UniProt P60710 1-375) (natural protein)”, the change of the co-precipitated amount after IPA against vehicle control was -74%.
